Reference: article PMC8217511 (2021)
Like-named read-outs stand apart in the source and are kept apart here.

B1: monobody MB_(CRS6)-15, purified (designed binder)
chain: GSVSSVPTKLEVVAATPTSLLISWDAPAVTVYLYVITYGETGGNSPVQEFEVPGSKSTATISGLKPGVDYTITVYASSKHSSRYASPISINYRT
B2: CrSAS-6_6HR, N-terminal domain and six heptad repeats of the coiled-coil of Chlamydomonas reinhardtii SAS-6 (domain or fragment)
chain: MPLLLDDGDPKAQTGFDLSTATTLFWRPVPVHVKQQDREDVLEELTFRILTGVAKQNHNLRILRIHISSDSDLFFLHTLEVSEEDFQSLKNDQGILVDFASFPGKIISLLEKCILAQPGDSPRFQAVLTIRGGESVFKIVEINDFKQLPHITLAFRPGNDSVVKQFLAFRLSEVKGTCHDLSDDLSRTRDDRDSMVAQLAQCRQQLAQLREQYDKHLLEVQAQAKT

Experiments:
Experiment in all cases: ITC
[1] = biological target: B2
MBCRS6-12 = biological target: MBCRS6-12
MBCRS6-5 [2] = biological target: MBCRS6-5
MBCRS6-5 [3] = biological target: MBCRS6-5; remark: listed apart in the source
MBCRS6-6 = biological target: MBCRS6-6
MBCRS6-3 = biological target: MBCRS6-3
MBCRS6-4 = biological target: MBCRS6-4
MBCRS6-2 = biological target: MBCRS6-2

Binder	Kd [1] [nM]	Kd (MBCRS6-12) [nM]	Kd (MBCRS6-5 [2]) [nM]	Kd (MBCRS6-5 [3]) [nM]	Kd (MBCRS6-6) [nM]	Kd (MBCRS6-3) [nM]	Kd (MBCRS6-4) [nM]	Kd (MBCRS6-2) [nM]
B1	468	–	–	–	–	–	–	–
B2	–	193	31.1	31	570	369	316	88700
